{"source": "paper PMC9676401", "key": {"[1]": {"target": "GFP-tagged JNK1 (JNK1β) in pEGFP-C2", "test": "co-immunoprecipitation (anti-FLAG IP, anti-GFP immunoblot, densitometry)", "settings": "COS-7 cells, transient transfection 48 h; parent: est. 1.0; read off a plot"}, "[2]": {"target": "Full-length FLAG-tagged MKP7 C244S (catalytically inactive, substrate-trapping) (human) (UniProt Q9BY84)", "sequence (Q9BY84 whole entry C244S)": "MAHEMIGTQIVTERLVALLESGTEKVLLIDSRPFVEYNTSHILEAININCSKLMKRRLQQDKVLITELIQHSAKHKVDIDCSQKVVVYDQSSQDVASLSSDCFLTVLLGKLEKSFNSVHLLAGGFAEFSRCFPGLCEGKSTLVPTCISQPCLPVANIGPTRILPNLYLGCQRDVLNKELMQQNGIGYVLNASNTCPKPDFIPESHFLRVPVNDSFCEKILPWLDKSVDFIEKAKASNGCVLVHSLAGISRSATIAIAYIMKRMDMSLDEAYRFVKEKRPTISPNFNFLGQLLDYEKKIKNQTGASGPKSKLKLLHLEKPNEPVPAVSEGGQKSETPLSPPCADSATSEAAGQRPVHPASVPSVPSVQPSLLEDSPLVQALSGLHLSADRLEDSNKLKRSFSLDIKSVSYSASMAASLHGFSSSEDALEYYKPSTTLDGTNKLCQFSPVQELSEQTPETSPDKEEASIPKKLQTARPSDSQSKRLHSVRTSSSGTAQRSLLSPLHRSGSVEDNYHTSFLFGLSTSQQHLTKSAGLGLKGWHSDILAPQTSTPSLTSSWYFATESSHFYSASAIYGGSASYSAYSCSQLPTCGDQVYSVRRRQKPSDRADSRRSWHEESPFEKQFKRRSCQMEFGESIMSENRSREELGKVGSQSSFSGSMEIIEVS", "test": "co-IP; COS-7 cells cotransfected for 48 h in 10% FBS DMEM with FLAG-MKP7 (WT or mutants) and p38α MAPK-HA, JNK1β-GFP or ERK2-HA; Pierce IP lysis buffer; immunoprecipitation with anti-FLAG M2 overnight and protein-G beads; immunoblot with anti-HA or anti-GFP; quantitation as MAPK/FLAG-MKP7"}}, "data": [{"substance": "Full-length FLAG-tagged MKP7 WT (1-665 aa) (from UniProt Q9BY84) Y271S", "values": [{"measurement": "ratio to parent", "setting": "[1]", "value": 0}]}, {"substance": "Full-length FLAG-tagged MKP7 WT (1-665 aa) (from UniProt Q9BY84) Y271S; C244S", "values": [{"measurement": "ratio to parent", "setting": "[1]", "value": 0}]}, {"substance": "GFP-tagged JNK1 (JNK1β) in pEGFP-C2 (enzyme)", "values": [{"measurement": "fold bound compared with WT", "setting": "[2]", "value": 3, "unit": "fold"}]}]}
